Measured values as given in patent EP4711453A1, “PHENYLALANINE LYASE MUTANT, AND CONJUGATE THEREOF OR PHARMACEUTICALLY ACCEPTABLE SALT THEREOF” (Peg-Bio Biopharm Co., Ltd. (Chongqing), priority 2023, dated 2024).

Key:
[1] = tested on: anti-PAL protein antibodies; assay: Anti-PAL protein antibody in rat serum after multiple administrations (bridging ELISA); assay type: in vivo; details: SD rats
Experimental: (§1) To evaluate PEGylated conjugates of phenylalanine lyase or its mutants with different average degrees of modification, the inventors divided SD rats into four groups (n=6 per group). The animals were subcutaneously injected with PL54-1 and PL54-5 (average degrees of modification: 10.54 and 13.60, respectively) and PL5-1 and PL5-5 (average degrees of modification: 8.2 and 10.53, respectively) from Table 3 of Example 2 at a dose of 2 mg/kg once a week for four doses. Blood samples were collected on D1 (Day 1), D3 (Day 3), and D7 (Day 7) after the first dose, as well as on D3 and D7 following each subsequent dose. The concentrations of PL54-1, PL54-5, PL5-1, and PL5-5 in rat serum were determined by sandwich ELISA to assess plasma drug concentration maintenance after multiple administrations. Anti-PEG-IgM/IgG antibody titers in rat serum from each group were measured using indirect ELISA (coating with PEG-BSA, adding positive rat anti-PEG Abs/test serum samples, followed by HRP-conjugated anti-rat IgM/IgG detection), while bridging ELISA (coating with PAL protein, adding positive sheep anti-PAL Abs/acidified serum samples, followed by biotin-labeled PAL detection) was also performed. The plasma drug concentration results are shown in FIG. 4, and the antibody detection results after administration were shown in FIG. 4 and FIG. 5.

[2] = tested on: serum phenylalanine; assay: Serum phenylalanine concentration after multiple administrations in phenylketonuria model mice (LC-MS/MS); assay type: in vivo; details: Pah^enu mice
Excerpt: Phenylalanine hydroxylase (PAH) was central to phenylalanine metabolism in animals, catalyzing the conversion of phenylalanine to tyrosine. Deficiency of this gene underlies phenylketonuria. […] Therefore, the homozygous mouse carrying the missense mutation F263S can be used as an animal model for phenylketonuria (referred to as the Pah^enu mouse or model mouse) in this drug study.
To evaluate the polyethylene glycol conjugate PL54 of site-saturation modified phenylalanine lyase mutant, […] Pah^enu mice were allocated into five groups (four experimental groups and one control group), with six mice in each group. PL54-5 (average degree of modification 13.60, specific enzyme activity 1.27 U/mg) from Table 3 of Example 2 was administered to phenylketonuria animal model mice at low, medium, and high doses of 0.5 mg/kg, 1.5 mg/kg, and 4.5 mg/kg, respectively, via subcutaneous injection. The high-dose group of 4.5 mg/kg also included a group receiving intramuscular administration, once per week. The control group was administered phosphate buffered saline as a placebo subcutaneously once weekly. Blood samples were collected from mice in each group at 1 h before administration and at 2, 5, and 7 days after administration for each group. The content of PL54-5 in serum, changes in phenylalanine concentration (Reference: Judy Peat et al., Determination of Phenylalanine and Tyrosine by High Performance Liquid Chromatography-Tandem Mass Spectrometry), and Anti-PEG-IgM/IgG antibody titers (see Example 5 for details) were detected by sandwich ELISA (see Example 5 for details), and their pharmacokinetics were evaluated, see FIG. 6 to FIG.9 for details.

[3] = tested on: serum phenylalanine; assay: Comparative pharmacodynamics with Pegvaliase: serum phenylalanine after multiple administrations; assay type: in vivo; details: Pah^enu mice, 3 mg/kg s.c. once weekly; second to fourth administrations
Excerpt: To evaluate the differences in pharmacodynamics and immunogenicity between the polyethylene glycol conjugate PL54-5 of directionally saturated modified phenylalanine lyase mutant and Pegvaliase (marketed drug), eight Pah^enu mice were allocated into two groups of four mice each, and administered with either PL54-5 (average degree of modification: 13.60, specific enzyme activity: 1.27 U/mg) from Table 3 of Example 2 or Pegvaliase Injection (manufactured by BioMarin, purchased lot number L161239, specification: 20 mg/mL/vial) at an administration dose of 3.0 mg/kg, once weekly via subcutaneous injection for four consecutive weeks. Blood samples were collected from each group of mice before administration and at 3 days and 7 days after each administration, respectively. Changes in serum phenylalanine concentration were measured (Reference: Judy Peat et al., Determination of Phenylalanine and Tyrosine by High Performance Liquid Chromatography-Tandem Mass Spectrometry) and anti-PEG-IgM/IgG antibody titers of each animal were determined at the end of the study (see Example 5 for details), to assess differences in pharmacodynamics and immunogenicity, as shown in FIG. 11 and FIG. 12.

[4] = parameters: species or system SD rats; details: rat, in vivo, sc, 2 mg/kg
Experimental: as §1

[5] = tested on: anti-PAL4 protein antibodies; assay: Anti-PAL4 protein antibody after multiple administrations in phenylketonuria model mice; assay type: in vivo; details: Pah^enu mice
[6] = tested on: anti-PAL-IgG; assay: Immunogenicity of conjugates with different PEG molecular weights in rats: anti-PAL-IgG (ELISA); assay type: in vivo; details: for anti-PAL-IgG, x (average OD value of antibody detection by ELISA) / anti-PAL-IgG, Positive rate: 0.75 mg/kg s.c. once weekly
Experimental: Polyethylene glycol conjugates of phenylalanine lyase or its mutant with different structures and modifier molecular weights, namely PL20, PL24, and PL54, were prepared according to the method described in Example 2. The phenylalanine lyase in PL20 has the amino acid sequence as set forth in SEQ ID NO: 1, and the polyethylene glycol has a molecular weight of 20K. The phenylalanine lyase in PL24 has the amino acid sequence as set forth in SEQ ID NO: 6, and the polyethylene glycol has a molecular weight of 2K. The phenylalanine lyase in PL54 has the amino acid sequence as set forth in SEQ ID NO: 6, and the polyethylene glycol has a molecular weight of 5K.
To evaluate the immunogenicity of PL20, PL24, and PL54 in animals, normal rats were selected and divided into 3 groups, with 6 rats per group (3 males and 3 females). Subcutaneous administration was performed at a dose of 0.75 mg/kg with PL54 (average degree of modification 13.6, 1.27 U/mg), PL24 (average degree of modification 13.3, 0.96 U/mg), and PL20 (average degree of modification 7.6, 1.14 U/mg) for the three groups, respectively. Administration was repeated 7 times, once weekly. Blood samples were collected 7 days after each administration. Serum anti-PEG-IgG and anti-PAL4 protein antibodies were detected by ELISA (refer to Example 5 for details). In the table, "1-7" indicated 7 days after the first administration, and "7-7" indicated 7 days after the seventh administration. x represented the average OD value of antibody detection by ELISA, and the positive rate represented the ratio of the number of antibody-positive animals to the total number of animals in the group. Table 6: Antibody titers in rats after multiple administrations of polyethylene glycol conjugates with different molecular weights

B1: PL54-5: polyethylene glycol conjugate of PAL4 (SEQ ID NO: 6) with PEG-SPA-5K, molar ratio 1:16, average degree of modification 13.60 (conjugate)
chain: MKTLSQAQSKTSSQQFSFTGNSSANVIIGNQKLTINDVARVARNGTLVSLTNNTDILQGIQASCDYINNAVKSGEPIYGVTSGFGGMANVAISREQASELQTNLVWFLKTGAGNKLPLADVRAAMLLRANSHMRGASGIRLELIKRMEIFLNAGVTPYVYEFGSIGASGDLVPLSYITGSLIGLDPSFKVDFNGKEMDAPTALRQLNLSPLTLLPKEGLAMMNGTSVMTGIAANCVYDTKILTAIAMGVHALDIQALNGTNQSFHPFIHNSKPHPGQLWAADQMISLLANSQLVRDELDGKHDYRDHELIQDRYSLRCLPQYLGPIVDGISQIAKQIEIEINSVTDNPLIDVDNQASYHGGNFLGQYVGMGMDHLRYYIGLLAKHLDVQIALLASPEFSNGLPPSLLGNRERKVNMGLKGLQICGNSIMPLLTFYGNSIADRFPTHAEQFNQNINSQGYTSATLARKSVDIFQNYVAIALMFGVQAVDLRTYKKTGHYDARASLSPATERLYSAVRHVVGQKPTSDRPYIWNDNEQGLDEHIAKISADIAAGGVIVQAVQDILPSLH
modifications: PEG-SPA-5K conjugate, ~13.6 PEG per molecule
**Q.** Which “anti-PAL protein antibodies, positive rats” value ([1]; serum dilution 1:10, 7 days after the fourth dose) does the source give for B1 here?
**A.** 1/6

**Q.** And the anti-PAL protein antibodies ([1]; serum dilution 1:10, after the first dose)?
**A.** very weak positivity

**Q.** What about the “efficacy after intramuscular administration” value ([2]; 4.5 mg/kg intramuscular once per week) of the same molecule?
**A.** consistent with that after subcutaneous administration

**Q.** And the serum phenylalanine ([2]; high dose 4.5 mg/kg s.c., within 2 days after the first administration)?
**A.** below the method detection limit

**Q.** What about the “reduction of serum phenylalanine levels” value ([2]; high-dose group 4.5 mg/kg s.c., after five repeated administrations, within 2 days) of the same molecule?
**A.** more than 90%

**Q.** And the “decrease of serum phenylalanine levels” value ([2]; medium-dose group 1.5 mg/kg s.c., after five repeated administrations)?
**A.** approximately 75%

**Q.** And the phenylalanine-lowering effect [3]?
**A.** consistently reduced phenylalanine levels on Day 3

**Q.** What about the plasma drug maintenance [4] of the same molecule?
**A.** superior to that of PL5-1 and PL5-5

**Q.** What about the anti-PAL4 protein antibodies ([5]; intramuscular administration group) of the same molecule?
**A.** weak positivity

**Q.** And the anti-PAL4 protein antibodies ([5]; subcutaneous administration group)?
**A.** negative

**Q.** And the “anti-PAL-IgG, x (average OD value of antibody detection by ELISA)” value ([6]; 1-7 (7 days after the first administration))?
**A.** x=0.107

**Q.** And the “anti-PAL-IgG, Positive rate” value ([6]; 1-7, antibody-positive animals / animals in the group)?
**A.** Positive rate: 2/6

**Q.** What about the “anti-PAL-IgG, x (average OD value of antibody detection by ELISA)” value ([6]; 7-7 (7 days after the seventh administration)) of the same molecule?
**A.** x=0.089

**Q.** And the “anti-PAL-IgG, Positive rate” value ([6]; 7-7, antibody-positive animals / animals in the group)?
**A.** Positive rate: 0/6

**Q.** What about the anti-PAL4 protein antibody ([6]; 7 days after seven doses) of the same molecule?
**A.** No anti-PAL4 protein antibody was detected
